Where no end group is shown, it is not given here. [ ]: non-standard residue; d: D form. pT = C[C@@H](OP(=O)(O)O)[C@H](N)C(=O)O; pS = N[C@@H](COP(=O)(O)O)C(=O)O; CF = carboxyfluorescein
Target: T1, Skp1-FBXW7 complex (human, UniProt P63208 1-149; Q969H0 263-707)
T1 construct: Skp1, truncated, residues 1-149; cDNA obtained from a HEK293T cell cDNA pool; human FBXW7, residues 263-707 (holds the WD40 domain); it was removed with TEV protease after Ni-NTA; also called purified FBXW7; FBXW7-Skp1 complex; source: E. coli Rosetta (DE3), co-expressed from a bicistronic plasmid (pMG950), purified (Ni-NTA, anion exchange, SEC); not shown: His6, N-terminal, cleaved
Assay: fluorescence polarisation; direct titration: 50 nM CF-labeled CCNE peptide, increasing Skp1-FBXW7 complex; 20 mM Tris pH 8.0, 100 mM NaCl, 0.05% Brij35P, 2 mM TCEP; 384-well plates, 20 uL
Settings: both partners purified

T1 sequence (P63208 1-149, chain 1 of 2): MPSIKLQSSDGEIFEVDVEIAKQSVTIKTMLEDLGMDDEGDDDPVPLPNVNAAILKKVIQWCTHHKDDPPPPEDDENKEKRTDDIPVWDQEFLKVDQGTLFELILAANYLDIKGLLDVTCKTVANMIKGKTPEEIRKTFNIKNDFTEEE
T1 sequence (Q969H0 263-707, chain 2 of 2): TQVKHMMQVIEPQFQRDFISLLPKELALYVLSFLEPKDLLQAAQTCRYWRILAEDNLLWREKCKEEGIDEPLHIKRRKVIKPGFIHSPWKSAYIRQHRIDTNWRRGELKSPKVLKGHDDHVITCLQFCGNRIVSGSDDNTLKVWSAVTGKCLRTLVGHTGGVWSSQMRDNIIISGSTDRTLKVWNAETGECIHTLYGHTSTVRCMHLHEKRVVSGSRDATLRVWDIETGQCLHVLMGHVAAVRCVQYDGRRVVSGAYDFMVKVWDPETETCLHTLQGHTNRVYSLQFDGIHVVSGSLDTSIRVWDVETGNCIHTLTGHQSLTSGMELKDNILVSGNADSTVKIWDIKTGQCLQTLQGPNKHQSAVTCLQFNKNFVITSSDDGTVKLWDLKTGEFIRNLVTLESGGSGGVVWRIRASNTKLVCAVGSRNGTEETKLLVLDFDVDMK

binding result: binds
B1: carboxyfluorescein (CF) labeled CCNE peptide (CF-PSGLLpTPPQpSGKKQ) (peptide)
peptide: {CF}-PSGLL[pT]PPQ[pS]GKKQ
notes: bisphosphorylated degron motif of cyclin E1 (CCNE1); also called fluorescently labeled CCNE peptide; CCNE1 motif; source: synthetic peptide (GenScript)

From paper PMC8955265, “Systematic Discovery of FBXW7-Binding Phosphodegrons Highlights Mitogen-Activated Protein Kinases as Important Regulators of Intracellular Protein Levels” (International Journal of Molecular Sciences, 2022)
